The record followed here is article PMC7060403 (Journal of molecular biology, 2019).

For the assay, the target named is T1, RavP-C (C-terminal region of the rabies virus phosphoprotein, residues 140-297) (rabies virus, UniProt P22363 140-297).
T1 sequence: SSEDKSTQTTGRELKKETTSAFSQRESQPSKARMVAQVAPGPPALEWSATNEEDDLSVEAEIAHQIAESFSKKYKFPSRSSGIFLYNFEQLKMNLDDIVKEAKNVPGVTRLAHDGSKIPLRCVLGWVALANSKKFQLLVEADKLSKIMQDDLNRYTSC
Briefly: ITC. In general terms: ITC needs no label: the signal is the heat of the interaction.

B1: LC8 from Drosophila melanogaster (natural protein, UniProt Q24117 1-89, looked up)
chain: MSDRKAVIKNADMSEEMQQDAVDCATQALEKYNIEKDIAAYIKKEFDKKYNPTWHCIVGRNFGSYVTHETRHFIYFYLGQVAILLFKSG
With B1, the Kd was determined as 4.19 µM.

By Kd is commonly meant the equilibrium constant for the complex coming apart.
